T1: DLG3_1, Q92796
T1 sequence (Q92796 125-227, limits assumed, looked up): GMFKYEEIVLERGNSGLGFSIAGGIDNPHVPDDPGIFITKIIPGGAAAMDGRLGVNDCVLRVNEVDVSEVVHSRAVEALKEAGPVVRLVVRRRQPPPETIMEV

T2: DLG3_2, Q92796
T2 sequence (Q92796 221-321, limits assumed, looked up): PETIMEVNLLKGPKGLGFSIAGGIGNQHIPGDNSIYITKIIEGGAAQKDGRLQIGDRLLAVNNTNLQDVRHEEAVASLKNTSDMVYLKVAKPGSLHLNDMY

T3: FRMPD1, Q5SYB0
T3 sequence (Q5SYB0 52-145, limits assumed, looked up): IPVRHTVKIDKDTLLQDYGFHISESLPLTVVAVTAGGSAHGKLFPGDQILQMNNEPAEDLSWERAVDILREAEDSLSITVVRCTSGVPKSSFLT

T4: GRIP1_5, Q9Y3R0
T4 sequence (Q9Y3R0 568-668, limits assumed, looked up): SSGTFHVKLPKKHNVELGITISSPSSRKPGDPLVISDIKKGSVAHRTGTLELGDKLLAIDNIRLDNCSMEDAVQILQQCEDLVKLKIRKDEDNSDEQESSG

T5: LNX2_2, Q8N448
T5 sequence (Q8N448 334-432, limits assumed, looked up): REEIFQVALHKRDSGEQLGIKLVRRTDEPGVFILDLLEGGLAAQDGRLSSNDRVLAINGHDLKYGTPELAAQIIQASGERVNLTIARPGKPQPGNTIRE

T6: MPDZ_12, O75970
T6 sequence (O75970 1857-1958, limits assumed, looked up): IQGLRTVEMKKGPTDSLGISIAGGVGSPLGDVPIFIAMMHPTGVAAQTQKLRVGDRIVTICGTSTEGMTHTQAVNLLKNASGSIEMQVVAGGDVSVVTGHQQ

T7: PARD3B_1, Q8TEW8
T7 sequence (Q8TEW8 196-299, limits assumed, looked up): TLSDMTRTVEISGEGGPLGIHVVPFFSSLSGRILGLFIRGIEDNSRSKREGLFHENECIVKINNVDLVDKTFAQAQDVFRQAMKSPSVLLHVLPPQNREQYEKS

T8: RAPGEF6, Q8TEU7
T8 sequence (Q8TEU7 525-625, limits assumed, looked up): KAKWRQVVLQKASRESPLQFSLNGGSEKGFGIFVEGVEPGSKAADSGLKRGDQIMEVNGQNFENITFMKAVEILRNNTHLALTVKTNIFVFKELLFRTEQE

T9: SNTB1, Q13884
T9 sequence (Q13884 107-205, limits assumed, looked up): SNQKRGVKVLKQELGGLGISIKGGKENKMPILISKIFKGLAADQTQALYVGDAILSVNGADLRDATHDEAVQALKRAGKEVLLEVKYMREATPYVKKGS

T10: TX1BP3, O14907
T10 sequence (O14907 10-122, limits assumed, looked up): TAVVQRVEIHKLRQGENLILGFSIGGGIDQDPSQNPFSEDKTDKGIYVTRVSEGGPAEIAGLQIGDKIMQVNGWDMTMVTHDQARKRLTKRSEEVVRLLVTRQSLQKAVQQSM


How the values were obtained:
Assay in all cases: holdup assay
Set-up in all cases: key: below the threshold = too weak to quantify, mostly under pKd 3.1 to 4
Settings in all cases: plain residues with an end cap or a label only (N-terminal biotin on a linker: ado-ado)
DLG3_1, Q92796 = molecular target: T1, DLG3_1, Q92796
DLG3_2, Q92796 = molecular target: T2, DLG3_2, Q92796
DLG4_1, P78352 = molecular target: DLG4_1, P78352
FRMPD1, Q5SYB0 = molecular target: T3, FRMPD1, Q5SYB0
FRMPD2_1, Q68DX3 = molecular target: FRMPD2_1, Q68DX3
FRMPD2_2, Q68DX3 = molecular target: FRMPD2_2, Q68DX3
GOPC, Q9HD26 = molecular target: GOPC, Q9HD26
GORASP2, Q9H8Y8 = molecular target: GORASP2, Q9H8Y8
GRIP1_5, Q9Y3R0 = molecular target: T4, GRIP1_5, Q9Y3R0
HTRA2, O43464 = molecular target: HTRA2, O43464
Inadl_3, Q8NI35 = molecular target: Inadl_3, Q8NI35
Inadl_6, Q8NI35 = molecular target: Inadl_6, Q8NI35
Inadl_8, Q8NI35 = molecular target: Inadl_8, Q8NI35
LNX2_2, Q8N448 = molecular target: T5, LNX2_2, Q8N448
MAGI2_4, Q86UL8 = molecular target: MAGI2_4, Q86UL8
MAGI2_5, Q86UL8 = molecular target: MAGI2_5, Q86UL8
MAST1, Q9Y2H9 = molecular target: MAST1, Q9Y2H9
MAST2, Q6P0Q8 = molecular target: MAST2, Q6P0Q8
MPDZ_12, O75970 = molecular target: T6, MPDZ_12, O75970
PARD3B_1, Q8TEW8 = molecular target: T7, PARD3B_1, Q8TEW8
PICK1, Q9NRD5 = molecular target: PICK1, Q9NRD5
PTPN3, P26045 = molecular target: PTPN3, P26045
RAPGEF6, Q8TEU7 = molecular target: T8, RAPGEF6, Q8TEU7
SCRIB_3, Q14160 = molecular target: SCRIB_3, Q14160
SNTB1, Q13884 = molecular target: T9, SNTB1, Q13884
TJP2_1, Q9UDY2 = molecular target: TJP2_1, Q9UDY2
TX1BP3, O14907 = molecular target: T10, TX1BP3, O14907

FRMPD2_2, Q68DX3, sequence (Q68DX3 944-1038): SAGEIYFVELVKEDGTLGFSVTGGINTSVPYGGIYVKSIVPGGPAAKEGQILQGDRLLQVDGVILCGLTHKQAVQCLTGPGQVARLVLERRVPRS
FRMPD2_1, Q68DX3, sequence (Q68DX3 770-861): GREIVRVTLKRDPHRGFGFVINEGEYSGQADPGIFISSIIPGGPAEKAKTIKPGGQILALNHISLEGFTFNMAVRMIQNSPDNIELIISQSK
Inadl_3, Q8NI35, sequence (Q8NI35 359-469): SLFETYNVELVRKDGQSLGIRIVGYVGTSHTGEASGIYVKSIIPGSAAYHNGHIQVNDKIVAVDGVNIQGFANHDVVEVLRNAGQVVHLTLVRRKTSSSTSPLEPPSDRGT
Inadl_8, Q8NI35, sequence (Q8NI35 1425-1530): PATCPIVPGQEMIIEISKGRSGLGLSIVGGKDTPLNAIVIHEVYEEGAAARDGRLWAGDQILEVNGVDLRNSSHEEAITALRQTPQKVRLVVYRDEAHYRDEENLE
MAST1, Q9Y2H9, sequence (Q9Y2H9 962-1065): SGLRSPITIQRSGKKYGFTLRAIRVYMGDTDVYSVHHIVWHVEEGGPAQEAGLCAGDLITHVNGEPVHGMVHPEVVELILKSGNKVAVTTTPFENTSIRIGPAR
SCRIB_3, Q14160, sequence (Q14160 999-1103): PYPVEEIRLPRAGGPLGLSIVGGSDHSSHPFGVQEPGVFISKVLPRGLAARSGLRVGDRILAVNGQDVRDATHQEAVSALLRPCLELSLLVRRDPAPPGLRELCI
PTPN3, P26045, sequence (P26045 505-587): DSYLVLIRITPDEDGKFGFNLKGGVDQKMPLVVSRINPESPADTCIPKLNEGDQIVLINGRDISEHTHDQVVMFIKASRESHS
DLG4_1, P78352, sequence (P78352 62-152): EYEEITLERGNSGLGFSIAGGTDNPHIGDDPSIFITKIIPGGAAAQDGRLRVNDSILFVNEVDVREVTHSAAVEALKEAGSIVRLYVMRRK
MAGI2_4, Q86UL8, sequence (Q86UL8 772-865): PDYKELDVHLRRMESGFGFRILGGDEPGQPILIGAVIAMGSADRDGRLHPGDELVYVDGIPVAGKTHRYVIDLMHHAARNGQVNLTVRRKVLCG
PICK1, Q9NRD5, sequence (Q9NRD5 17-115): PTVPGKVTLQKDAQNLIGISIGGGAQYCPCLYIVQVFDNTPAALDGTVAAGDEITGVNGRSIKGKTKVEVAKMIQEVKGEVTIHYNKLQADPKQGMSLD
TJP2_1, Q9UDY2, sequence (Q9UDY2 24-128): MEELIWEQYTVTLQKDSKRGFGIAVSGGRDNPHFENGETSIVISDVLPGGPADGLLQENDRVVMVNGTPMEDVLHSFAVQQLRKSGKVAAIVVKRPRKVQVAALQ
MAST2, Q6P0Q8, sequence (Q6P0Q8 1099-1202): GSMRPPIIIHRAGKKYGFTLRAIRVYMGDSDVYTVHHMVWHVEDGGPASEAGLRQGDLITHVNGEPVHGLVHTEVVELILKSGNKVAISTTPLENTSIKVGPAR
HTRA2, O43464, sequence (O43464 355-458): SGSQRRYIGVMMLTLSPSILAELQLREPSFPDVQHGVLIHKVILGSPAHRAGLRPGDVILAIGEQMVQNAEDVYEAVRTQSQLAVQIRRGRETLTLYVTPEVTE
Inadl_6, Q8NI35, sequence (Q8NI35 1058-1167): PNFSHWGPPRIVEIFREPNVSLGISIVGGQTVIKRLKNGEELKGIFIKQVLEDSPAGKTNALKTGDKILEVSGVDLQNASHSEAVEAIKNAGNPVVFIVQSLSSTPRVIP
MAGI2_5, Q86UL8, sequence (Q86UL8 915-1017): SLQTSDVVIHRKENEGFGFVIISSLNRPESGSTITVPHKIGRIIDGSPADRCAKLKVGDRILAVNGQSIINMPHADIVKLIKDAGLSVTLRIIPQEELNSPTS

Binder	pKd (DLG3_1, Q92796)	pKd (DLG3_2, Q92796)	pKd (DLG4_1, P78352)	pKd (FRMPD1, Q5SYB0)	pKd (FRMPD2_1, Q68DX3)	pKd (FRMPD2_2, Q68DX3)	pKd (GOPC, Q9HD26)	pKd (GORASP2, Q9H8Y8)	pKd (GRIP1_5, Q9Y3R0)	pKd (HTRA2, O43464)	pKd (Inadl_3, Q8NI35)	pKd (Inadl_6, Q8NI35)	pKd (Inadl_8, Q8NI35)	pKd (LNX2_2, Q8N448)	pKd (MAGI2_4, Q86UL8)	pKd (MAGI2_5, Q86UL8)	pKd (MAST1, Q9Y2H9)	pKd (MAST2, Q6P0Q8)	pKd (MPDZ_12, O75970)	pKd (PARD3B_1, Q8TEW8)	further results
NVYGTESVKI [GRIA3, P42263]	below the threshold	below the threshold	below the threshold	below the threshold	below the threshold	below the threshold	below the threshold	3.51	below the threshold	below the threshold	below the threshold	below the threshold	below the threshold	3.74	below the threshold	below the threshold	3.93	3.81	below the threshold	4.8	pKd (PICK1, Q9NRD5): below the threshold; pKd (PTPN3, P26045): below the threshold; pKd (RAPGEF6, Q8TEU7): below the threshold; pKd (SCRIB_3, Q14160): below the threshold; pKd (SNTB1, Q13884): below the threshold; pKd (TJP2_1, Q9UDY2): below the threshold; pKd (TX1BP3, O14907): below the threshold
ANGLMQTSKL [SSTR5, P35346]	below the threshold	3.75	below the threshold	below the threshold	below the threshold	below the threshold	4.93	below the threshold	below the threshold	below the threshold	below the threshold	below the threshold	below the threshold	below the threshold	below the threshold	below the threshold	4.63	5.34	below the threshold	4.16	pKd (PICK1, Q9NRD5): 4.08; pKd (PTPN3, P26045): 4.1; pKd (RAPGEF6, Q8TEU7): below the threshold; pKd (SCRIB_3, Q14160): 3.5; pKd (SNTB1, Q13884): below the threshold; pKd (TJP2_1, Q9UDY2): below the threshold; pKd (TX1BP3, O14907): 4.11
NASRTRITFV [MCM7, P33993]	4.19	4.75	4.76	below the threshold	below the threshold	5.11	4.2	5.38	below the threshold	4.52	below the threshold	4.46	5.05	5.43	3.82	3.75	4.39	4.99	3.77	below the threshold	pKd (PICK1, Q9NRD5): 4.17; pKd (PTPN3, P26045): 4.71; pKd (RAPGEF6, Q8TEU7): below the threshold; pKd (SCRIB_3, Q14160): 4.37; pKd (SNTB1, Q13884): 5.13; pKd (TJP2_1, Q9UDY2): 5.34; pKd (TX1BP3, O14907): 4.88
ETSLVKGIDI [DENND5A, Q6IQ26]	below the threshold	3.57	below the threshold	below the threshold	below the threshold	below the threshold	below the threshold	3.79	below the threshold	below the threshold	3.53	below the threshold	below the threshold	4.13	3.66	below the threshold	below the threshold	below the threshold	3.6	4.23	pKd (PICK1, Q9NRD5): below the threshold; pKd (PTPN3, P26045): below the threshold; pKd (RAPGEF6, Q8TEU7): below the threshold; pKd (SCRIB_3, Q14160): 3.51; pKd (SNTB1, Q13884): below the threshold; pKd (TJP2_1, Q9UDY2): below the threshold; pKd (TX1BP3, O14907): below the threshold

Reference: article PMC9482650, “Quantitative fragmentomics allow affinity mapping of interactomes” (Nature Communications, 2022)
